From paper PMC3468502

Biological target: BCL11A (Homo sapiens) (UniProt Q9H165)
Assay: EMSA supershift
Settings: with NF-Y, EMSA with nuclear extracts, 100x molar excess competitors, buffer and temperature not given (refs 25-27)

Sequence of UniProt Q9H165 (Q9H165 whole entry): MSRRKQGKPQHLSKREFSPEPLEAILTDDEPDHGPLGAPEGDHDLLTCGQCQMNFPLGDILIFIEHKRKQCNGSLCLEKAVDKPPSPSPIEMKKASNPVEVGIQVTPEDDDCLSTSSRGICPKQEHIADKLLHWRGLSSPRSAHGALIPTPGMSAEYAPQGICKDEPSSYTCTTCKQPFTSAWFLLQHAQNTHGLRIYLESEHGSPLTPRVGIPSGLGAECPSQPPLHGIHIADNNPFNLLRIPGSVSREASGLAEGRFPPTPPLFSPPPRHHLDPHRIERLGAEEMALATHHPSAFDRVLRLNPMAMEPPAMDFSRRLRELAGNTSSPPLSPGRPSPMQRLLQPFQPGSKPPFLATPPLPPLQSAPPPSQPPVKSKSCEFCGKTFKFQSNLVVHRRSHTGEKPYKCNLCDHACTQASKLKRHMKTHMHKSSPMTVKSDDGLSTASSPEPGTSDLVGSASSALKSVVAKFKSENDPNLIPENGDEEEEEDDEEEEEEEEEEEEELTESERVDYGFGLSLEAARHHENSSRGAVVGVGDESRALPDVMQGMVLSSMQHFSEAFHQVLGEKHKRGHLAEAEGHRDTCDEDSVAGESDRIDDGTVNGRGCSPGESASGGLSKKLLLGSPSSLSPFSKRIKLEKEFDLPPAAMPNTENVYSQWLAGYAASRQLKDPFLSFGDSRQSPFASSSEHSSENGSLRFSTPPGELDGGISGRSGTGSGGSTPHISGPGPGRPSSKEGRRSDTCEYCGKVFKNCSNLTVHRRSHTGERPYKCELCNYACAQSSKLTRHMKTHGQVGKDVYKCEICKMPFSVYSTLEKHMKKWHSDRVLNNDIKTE

For “GCCTTGCCTTGACCAATAGCCTTGACAAGGCAAACTTGACCAATAGTCTTAGAGTATCCAGTGAGGCCAGGGGCCGGCGGCTGGCTAGGGATGA (double strand) [Wt proximal gamma-globin promoter probe (94 bases)]”, the binding signal (% of NF-Y band supershifted) (D14 extract) was 40, the binding signal (% of NF-Y band supershifted) (K562 extract) was 30 and the binding signal (% of NF-Y band supershifted) (fetal liver extract) was 30.
